Data reported in patent US20100221257A1 (AstraZeneca / MedImmune, published 2010).
Residue numbers refer to the chain shown, from its start.

T1: human IL-1R1, endogenous on human cells (HeLa cells; whole blood) (human, UniProt P14778 18-569)
T1 sequence (looked up): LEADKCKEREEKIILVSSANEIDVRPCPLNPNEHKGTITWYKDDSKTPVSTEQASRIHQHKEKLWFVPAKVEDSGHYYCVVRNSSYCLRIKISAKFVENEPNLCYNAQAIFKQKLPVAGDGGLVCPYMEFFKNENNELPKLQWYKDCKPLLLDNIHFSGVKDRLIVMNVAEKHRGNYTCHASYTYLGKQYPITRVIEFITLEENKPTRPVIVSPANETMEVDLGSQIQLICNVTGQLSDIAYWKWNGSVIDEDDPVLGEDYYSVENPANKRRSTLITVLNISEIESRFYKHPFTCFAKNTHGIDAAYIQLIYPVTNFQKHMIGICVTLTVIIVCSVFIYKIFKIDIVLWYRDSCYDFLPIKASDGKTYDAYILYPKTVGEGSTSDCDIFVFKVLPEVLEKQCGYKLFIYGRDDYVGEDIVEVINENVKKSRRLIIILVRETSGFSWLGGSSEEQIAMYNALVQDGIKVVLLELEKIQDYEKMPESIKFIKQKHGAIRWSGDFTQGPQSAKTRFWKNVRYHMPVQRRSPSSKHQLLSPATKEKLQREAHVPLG

T2: cynomolgus IL-1R1, endogenous on CYNOM-K1 cells (cynomolgus monkey, UniProt A0A7N9CMI5 18-569)
T2 sequence: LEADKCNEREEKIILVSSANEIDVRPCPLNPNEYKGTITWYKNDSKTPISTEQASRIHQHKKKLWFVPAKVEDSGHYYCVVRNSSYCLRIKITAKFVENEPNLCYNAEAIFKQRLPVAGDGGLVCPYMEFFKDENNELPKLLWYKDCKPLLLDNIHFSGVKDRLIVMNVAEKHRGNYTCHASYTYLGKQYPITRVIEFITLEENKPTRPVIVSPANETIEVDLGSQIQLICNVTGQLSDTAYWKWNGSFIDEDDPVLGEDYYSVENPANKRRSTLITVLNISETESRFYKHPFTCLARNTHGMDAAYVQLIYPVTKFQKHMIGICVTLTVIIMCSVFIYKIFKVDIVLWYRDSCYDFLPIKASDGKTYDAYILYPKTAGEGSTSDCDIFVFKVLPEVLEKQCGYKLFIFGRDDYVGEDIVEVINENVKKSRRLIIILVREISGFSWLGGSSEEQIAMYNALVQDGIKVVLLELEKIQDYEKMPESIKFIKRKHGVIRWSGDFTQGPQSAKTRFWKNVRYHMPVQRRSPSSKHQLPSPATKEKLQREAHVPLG

T3: recombinant human IL-1 R4 (ST2)/Fc (human, UniProt Q01638-2 19-328, limits assumed)
T3 construct: Bought; not shown: Fc of the bought fusion protein, not described
T3 sequence (looked up): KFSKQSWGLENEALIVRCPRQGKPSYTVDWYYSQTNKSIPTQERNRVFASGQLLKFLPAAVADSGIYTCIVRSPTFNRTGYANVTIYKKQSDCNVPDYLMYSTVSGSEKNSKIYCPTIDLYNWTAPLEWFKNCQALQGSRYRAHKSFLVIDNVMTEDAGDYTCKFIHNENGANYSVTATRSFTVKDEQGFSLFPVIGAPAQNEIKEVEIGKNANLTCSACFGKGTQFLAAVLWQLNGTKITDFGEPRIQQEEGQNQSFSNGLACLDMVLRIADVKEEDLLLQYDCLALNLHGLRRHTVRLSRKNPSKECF

B1: Antibody 6GL IgG2 (antibody, V domains shown)
VH: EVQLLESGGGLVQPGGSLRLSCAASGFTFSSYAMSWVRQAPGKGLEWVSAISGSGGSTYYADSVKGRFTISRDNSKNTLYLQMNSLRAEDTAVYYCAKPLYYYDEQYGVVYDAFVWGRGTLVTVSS
VL: QSVLTQPPSVSGAPGQRVTISCTGSSSNIGAGYDVHWYQQLPGTAPKLLIYGDTHRPSGVPDRFSGSKSGTSASLAITGLQAEDEADYYCQSYDTVRLHHVFGGGTKLTVL
notes: Germlined IgG2, lambda light chain; also called Antibody 6 IgG2; 28PL GL
B2: Antibody 8GL IgG2 (antibody, V domains shown)
VH: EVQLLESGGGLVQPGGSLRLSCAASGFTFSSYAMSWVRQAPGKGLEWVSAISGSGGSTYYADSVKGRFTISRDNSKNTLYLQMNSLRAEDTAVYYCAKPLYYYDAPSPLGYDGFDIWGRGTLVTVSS
VL: B1 VL with V96H, R97L, L98V, H99A
notes: Germlined IgG2, lambda light chain
B3: Antibody 10GL IgG2 (antibody, V domains shown)
VH: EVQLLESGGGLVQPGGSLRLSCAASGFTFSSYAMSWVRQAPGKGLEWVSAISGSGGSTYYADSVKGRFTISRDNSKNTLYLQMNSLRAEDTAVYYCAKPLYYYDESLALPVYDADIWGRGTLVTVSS
VL: B1 VL with V96R, R97A, L98D, H99D, H100A, V101H
notes: as for B2

Biological target: T1, human IL-1R1, endogenous on human cells …
Experiment: cell-based or functional assay

Compared with B1, B2 is 64-fold higher in “IC50, inhibition of IL-1 alpha induced IL-8 release in HeLa cells (GL IgG2)” value: 3.1 pM for the first, 197 pM for the second.

With B3 the “IC50, inhibition of IL-1 alpha induced IL-8 release in HeLa cells (GL IgG2)” value was 13.8 pM.

First: B1
Second: B2
The “IC50, inhibition of IL-1 beta induced IL-8 release in HeLa cells (GL IgG2)” value of the first is 3.5-fold lower: 11.9 pM for the first, 41.9 pM for the second.

In the case of B3, the “IC50, inhibition of IL-1 beta induced IL-8 release in HeLa cells (GL IgG2)” value is reported as 24.2 pM.

Biological target: T2, cynomolgus IL-1R1, endogenous on …
Experiment: cell-based or functional assay

First: B1
Second: B2
The “IC50, inhibition of IL-1β induced IL-8 release from CYNOM-K1 cells, experiment 1” value of the first is 5.2-fold lower: 800 pM for the first, 4200 pM for the second.

For B3, the “IC50, inhibition of IL-1β induced IL-8 release from CYNOM-K1 cells, experiment 1” value was 900 pM.

First: B1
Second: B2
The “IC50, inhibition of IL-1β induced IL-8 release from CYNOM-K1 cells, experiment 2” value of the first is 4.2-fold lower: 600 pM for the first, 2500 pM for the second.

With B3 the “IC50, inhibition of IL-1β induced IL-8 release from CYNOM-K1 cells, experiment 2” value was 700 pM.

Biological target: T3, recombinant human IL-1 R4 (ST2)/Fc
Experiment: DELFIA epitope competition; no inhibition of biotinylated huIL-1RFc binding to the adsorbed IgG
Description: Titrations of non biotinylated purified human recombinant IL1sRII (R&D Systems), human recombinant IL-1R6/IL1 R rpt/Fc (R&D Systems), human recombinant IL18R alpha/IL-1 R5/Fc (R&D systems) and recombinant human IL-1 R4 (ST2)/Fc (R&D systems) were tested in each assay to establish the potency for each structurally related family member, as measured by IC₅₀ values in the assay.
Purified IgG were adsorbed onto 96-well Maxisorp microtitre plates (Nunc) in PBS at a concentration which gave a significant signal when biotinylated human HIS IL1RFc was added at approximately its estimated KD for that particular IgG. Excess IgG was washed away with PBS-Tween (0.1% v/v) and the wells were blocked with non-fat dried milk in PBS (3% w/v) for 1 h. […] Non-biotinylated human HIS IL1RFc was included as a positive control. 25 μl of this dilution series was added to the blocked IgG assay plate.
25 μl of 1.4 nM biotinylated human HIS IL1RFc was added to the assay plate. The plate was then sealed and incubated at room temperature for 2 h. Unbound antigen was removed by washing with PBS-Tween (0.1% v/v), while the remaining biotinylated human IL1RFc was detected by streptavidin-Europium3+ conjugate (DELFIA® detection, PerkinElmer). Time-resolved fluorescence was measured at 620 nm on an EnVision plate reader (PerkinElmer). Fluorescence data was plotted as europium counts. IC₅₀ values were determined using GraphPad Prism software by curve fitting using a four-parameter logistic equation (Equation 3).

B1: no binding.
B2: no binding.
B3: no binding.

Biological target: T4, human histidine tagged (HIS) IL1RFc fusion protein (human)
T4 construct: Biotinylated or cryptate labelled in some assays; also called human HIS IL1RFc; huIL-1R1-Fc
Experiment: HTRF receptor-ligand assay, IgG inhibiting HIS FLAG IL-1Ra binding to cryptate labelled human HIS IL1RFc
Description: The ability of lead antibodies to inhibit IL-1Ra to IL-1R1 was assessed in a receptor-ligand binding HTRF® (Homogeneous Time-Resolved Fluorescence) assay format for inhibition of HIS FLAG tagged human IL1Ra (In house, E. Coli expressed; HIS FLAG IL-1RA) binding to human histidine tagged (HIS) IL1RFc fusion protein (in house), as described in the Materials and methods section.
A titration of inhibitor was used in order to establish the clone potency as measured by IC₅₀ values in the assay. All dilutions were carried out in assay buffer as for ligand binding assay above. 5 μl of a titration of inhibitor was added to a 384 well low volume assay plate (Costar 3676). This was then followed by addition of 0.4 nM cryptate labelled HIS IL1RFc. Assay plates were then sealed and incubated at room temperature in dark for 1 hour.

Going from B1 to B2, the IC50 rises from 181 pM to 363 pM (2-fold). The first is the more potent here.

Work on B3 yielded an IC50 of 323 pM.
